# Test results as given in article PMC7577485, “An intrinsic mechanism for coordinated production of the contact-dependent and contact-independent weapon systems in a soil bacterium” (PLoS Pathogens, 2020).
# How the values were obtained:
# GST-Clp (Clp) = target: T1, GST-Clp (Clp) (Lysobacter enzymogenes, UniProt Q7WZ07); test: microscale thermophoresis, NT-647-labelled GST-Clp; format: binding; conditions: 25 °C; 10 μM labelled protein (130 mM NaHCO3, 50 mM NaCl); no Hcp; protein concentration above Kd
# T1 construct: labelled with NT-647-NHS for MST
# T1 sequence (Q7WZ07 1-229): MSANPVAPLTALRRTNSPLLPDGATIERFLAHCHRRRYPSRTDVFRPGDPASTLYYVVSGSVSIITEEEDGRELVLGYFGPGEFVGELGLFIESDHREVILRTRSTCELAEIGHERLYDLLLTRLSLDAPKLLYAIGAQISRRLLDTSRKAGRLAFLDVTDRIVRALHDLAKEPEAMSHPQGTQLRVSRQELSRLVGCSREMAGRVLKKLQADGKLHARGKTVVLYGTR
# [1] = system: Clp (Lysobacter enzymogenes OH11); test: MST; conditions: MST: 0.5 uM FAM-DNA, Clp in PBS, 25 C
# [2] = target: GST-Clp (Lysobacter enzymogenes) (UniProt Q7WZ07); test: MST; 10 μM NT-647-NHS labelled GST-Clp or GST in label buffer (130 mM NaHCO3, 50 mM NaCl) titrated with unlabelled Hcp-His6 in PBS; Monolith NT.115, 25°C, 80% MST power, 20% LED power
molecule,measurement,setting,value
Nc1nc2c(ncn2[C@@H]2O[C@@H]3COP(=O)(O)O[C@H]4[C@@H](O)[C@H](n5cnc6c(=O)[nH]c(N)nc65)O[C@@H]4COP(=O)(O)O[C@H]3[C@H]2O)c(=O)[nH]1 [c-di-GMP],Kd,GST-Clp (Clp),1500 nM
"PA site probe, HSAF operon promoter",Kd,[1],390 nM
Hcp-His6 (natural protein),Kd,[2],1510 nM
